Laboratory results taken from PMC6212729 (Nucleic Acids Research, 2018).
Values belong to the molecule of their own block, whether it stands above or below them.

B1: Human WT emerin fragment from amino acid 1 to amino acid 187 (EmN) (domain or fragment, UniProt P50402 1-187, looked up)
chain: MDNYADLSDTELTTLLRRYNIPHGPVVGSTRRLYEKKIFEYETQRRRLSPPSSSAASSYSFSDLNSTRGDADMYDLPKKEDALLYQSKGYNDDYYEESYFTTRTYGEPESAGPSRAVRQSVTSFPDADAFHHQVHDDDLLSSSEEECKDRERPMYGRDSAYQSITHYRPVSASRSSLDLSYYPTSSS

How the values were obtained:
[1] = target: Human Barrier-to-Autointegration Factor (BAF) with all cysteines mutated in alanine (human) (UniProt O75531); test: ITC
[2] = target: Human Barrier-to-Autointegration Factor (BAF) with all cysteines mutated in alanine (human) (UniProt O75531); test: crystal structure
[3] = target: the molecule itself; test: negative-staining electron microscopy
[4] = target: Human Barrier-to-Autointegration Factor (BAF) with all cysteines mutated in alanine (human) (UniProt O75531); test: ITC; remark: listed apart in the source
[5] = target: B1; test: NMR titration
[6] = target: T1, GFP-BAF (full length BAF) (UniProt O75531 1-89); test: proximity ligation
T1 sequence (looked up): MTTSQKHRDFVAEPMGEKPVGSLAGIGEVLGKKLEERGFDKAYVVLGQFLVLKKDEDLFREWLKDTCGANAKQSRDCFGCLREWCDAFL

Molecule: B1
binding result [3]: binds | Kd [4]: 700 nM

B3: FLAG-mature lamin A (aa 1 to aa 646) A529V (natural protein, UniProt P02545 1-646, looked up)
chain: METPSQRRATRSGAQASSTPLSPTRITRLQEKEDLQELNDRLAVYIDRVRSLETENAGLRLRITESEEVVSREVSGIKAAYEAELGDARKTLDSVAKERARLQLELSKVREEFKELKARNTKKEGDLIAAQARLKDLEALLNSKEAALSTALSEKRTLEGELHDLRGQVAKLEAALGEAKKQLQDEMLRRVDAENRLQTMKEELDFQKNIYSEELRETKRRHETRLVEIDNGKQREFESRLADALQELRAQHEDQVEQYKKELEKTYSAKLDNARQSAERNSNLVGAAHEELQQSRIRIDSLSAQLSQLQKQLAAKEAKLRDLEDSLARERDTSRRLLAEKEREMAEMRARMQQQLDEYQELLDIKLALDMEIHAYRKLLEGEEERLRLSPSPTSQRSRGRASSHSSQTQGGGSVTKKRKLESTESRSSFSQHARTSGRVAVEEVDEEGKFVRLRNKSNEDQSMGNWQIKRQNGDDPLLTYRFPPKFTLKAGQVVTIWAAGAGATHSPPTDLVWKAQNTWGCGNSLRTVLINSTGEEVAMRKLVRSVTVVEDDEDEDGDDLLHHHHGSHCSSSGDPAEYNLRSRTVLCGTCGQPADKASASGSGAQVGGPISSGSSASSVTVTRSYRSVGGSGGGSFGDNLVTRSY
PLA signals as percent of WT lamin A [6]: ~50 % of WT

B4: FLAG-mature lamin A (aa 1 to aa 646) K542N (natural protein, UniProt P02545 1-646, looked up)
chain: METPSQRRATRSGAQASSTPLSPTRITRLQEKEDLQELNDRLAVYIDRVRSLETENAGLRLRITESEEVVSREVSGIKAAYEAELGDARKTLDSVAKERARLQLELSKVREEFKELKARNTKKEGDLIAAQARLKDLEALLNSKEAALSTALSEKRTLEGELHDLRGQVAKLEAALGEAKKQLQDEMLRRVDAENRLQTMKEELDFQKNIYSEELRETKRRHETRLVEIDNGKQREFESRLADALQELRAQHEDQVEQYKKELEKTYSAKLDNARQSAERNSNLVGAAHEELQQSRIRIDSLSAQLSQLQKQLAAKEAKLRDLEDSLARERDTSRRLLAEKEREMAEMRARMQQQLDEYQELLDIKLALDMEIHAYRKLLEGEEERLRLSPSPTSQRSRGRASSHSSQTQGGGSVTKKRKLESTESRSSFSQHARTSGRVAVEEVDEEGKFVRLRNKSNEDQSMGNWQIKRQNGDDPLLTYRFPPKFTLKAGQVVTIWAAGAGATHSPPTDLVWKAQNTWGCGNSLRTALINSTGEEVAMRNLVRSVTVVEDDEDEDGDDLLHHHHGSHCSSSGDPAEYNLRSRTVLCGTCGQPADKASASGSGAQVGGPISSGSSASSVTVTRSYRSVGGSGGGSFGDNLVTRSY
PLA signals as percent of WT lamin A [6]: ~50 % of WT

B5: FLAG-mature lamin A (aa 1 to aa 646) R435C (natural protein, UniProt P02545 1-646, looked up)
chain: METPSQRRATRSGAQASSTPLSPTRITRLQEKEDLQELNDRLAVYIDRVRSLETENAGLRLRITESEEVVSREVSGIKAAYEAELGDARKTLDSVAKERARLQLELSKVREEFKELKARNTKKEGDLIAAQARLKDLEALLNSKEAALSTALSEKRTLEGELHDLRGQVAKLEAALGEAKKQLQDEMLRRVDAENRLQTMKEELDFQKNIYSEELRETKRRHETRLVEIDNGKQREFESRLADALQELRAQHEDQVEQYKKELEKTYSAKLDNARQSAERNSNLVGAAHEELQQSRIRIDSLSAQLSQLQKQLAAKEAKLRDLEDSLARERDTSRRLLAEKEREMAEMRARMQQQLDEYQELLDIKLALDMEIHAYRKLLEGEEERLRLSPSPTSQRSRGRASSHSSQTQGGGSVTKKRKLESTESRSSFSQHACTSGRVAVEEVDEEGKFVRLRNKSNEDQSMGNWQIKRQNGDDPLLTYRFPPKFTLKAGQVVTIWAAGAGATHSPPTDLVWKAQNTWGCGNSLRTALINSTGEEVAMRKLVRSVTVVEDDEDEDGDDLLHHHHGSHCSSSGDPAEYNLRSRTVLCGTCGQPADKASASGSGAQVGGPISSGSSASSVTVTRSYRSVGGSGGGSFGDNLVTRSY
PLA signals as percent of WT lamin A [6]: ~50 % of WT

B7: Human WT emerin fragment from amino acid 67 to amino acid 221 (EmC) (domain or fragment, UniProt P50402 67-221, looked up)
chain: TRGDADMYDLPKKEDALLYQSKGYNDDYYEESYFTTRTYGEPESAGPSRAVRQSVTSFPDADAFHHQVHDDDLLSSSEEECKDRERPMYGRDSAYQSITHYRPVSASRSSLDLSYYPTSSSTSFMSSSSSSSSWLTRRAIRPENRAPGAGLGQDR
binding result [3]: binds

Results, then the molecule that gave them:

fold decrease of affinity against LamIgF WT [1]: 5 fold
Molecule: LamIgF mutant R471C (from UniProt P02545 411-566) (domain or fragment)

stoichiometry N [2]: 2
Molecule: Human Barrier-to-Autointegration Factor (BAF) with all cysteines mutated in alanine (from UniProt O75531 2-76) (natural protein)

fold decrease of affinity against LamIgF WT [1]: 5 fold
Molecule: LamIgF mutant A529V (from UniProt P02545 411-566) (domain or fragment)

binding result [5]: binds
B2: Human wild-type lamin A/C fragment from amino acid 411 to amino acid 566 (LamIgF) (domain or fragment, UniProt P02545 411-566, looked up)
chain: GGGSVTKKRKLESTESRSSFSQHARTSGRVAVEEVDEEGKFVRLRNKSNEDQSMGNWQIKRQNGDDPLLTYRFPPKFTLKAGQVVTIWAAGAGATHSPPTDLVWKAQNTWGCGNSLRTALINSTGEEVAMRKLVRSVTVVEDDEDEDGDDLLHHHH

PLA signals as percent of WT lamin A [6]: ~50 % of WT
B6: FLAG-mature lamin A (aa 1 to aa 646) R527H (natural protein, UniProt P02545 1-646, looked up)
chain: METPSQRRATRSGAQASSTPLSPTRITRLQEKEDLQELNDRLAVYIDRVRSLETENAGLRLRITESEEVVSREVSGIKAAYEAELGDARKTLDSVAKERARLQLELSKVREEFKELKARNTKKEGDLIAAQARLKDLEALLNSKEAALSTALSEKRTLEGELHDLRGQVAKLEAALGEAKKQLQDEMLRRVDAENRLQTMKEELDFQKNIYSEELRETKRRHETRLVEIDNGKQREFESRLADALQELRAQHEDQVEQYKKELEKTYSAKLDNARQSAERNSNLVGAAHEELQQSRIRIDSLSAQLSQLQKQLAAKEAKLRDLEDSLARERDTSRRLLAEKEREMAEMRARMQQQLDEYQELLDIKLALDMEIHAYRKLLEGEEERLRLSPSPTSQRSRGRASSHSSQTQGGGSVTKKRKLESTESRSSFSQHARTSGRVAVEEVDEEGKFVRLRNKSNEDQSMGNWQIKRQNGDDPLLTYRFPPKFTLKAGQVVTIWAAGAGATHSPPTDLVWKAQNTWGCGNSLHTALINSTGEEVAMRKLVRSVTVVEDDEDEDGDDLLHHHHGSHCSSSGDPAEYNLRSRTVLCGTCGQPADKASASGSGAQVGGPISSGSSASSVTVTRSYRSVGGSGGGSFGDNLVTRSY
